Assay [1] concerns the target Humicola insolens 43 kD endoglucanase (Humicola insolens).
Assay [2] concerns the target Variant I: V221S+N222S+Q223T (Humicola insolens).
The target in assay [3] is Variant II: V240P+Q241P (Humicola insolens).

Results on 1 substance are retold here after US6114296.

As to “Savinase protease (from UniProt P29600) (enzyme)”, the Residual Activity, % DAA (25° C., 5 d storage in liquid detergent with protease) stood at 63 % DAA in assay [1], 83 % DAA in assay [2] and 81 % DAA in assay [3].
